Experimental data published in patent EP2415863A1, “Mutant glucose oxidase” (B.R.A.I.N., priority 2010, dated 2012).

Experiments:
Format in all cases: biochemical, Aspergillus niger
[1] = substrate: OC[C@H]1OC(O)[C@H](O)[C@@H](O)[C@@H]1O; test: Kinetic constants by ABTS assay, wt GOx; settings: other: wt GOx, 2.5-100 mM glucose
From the text: (§1) For detection of GOx activity the ABTS assay was used. 2,2'-azino-bis(3-ethylbenzthiazoline-6-sulphonic acid (ABTS) is commonly used as a substrate with hydrogen peroxide for a peroxidase generating enzyme. Its use allows the reaction kinetics of peroxidases to be followed, to indirectly follow the reaction kinetics of a hydrogen peroxide-producing enzyme or to quantify the amount of hydrogen peroxide in a sample [vanGijlswijk, R.P.M., et al., Fluorochrome-labeled tyramides: Use in immunocytochemistry and fluorescence in situ hybridization. Journal of Histochemistry & Cytochemistry, 1997. 45(3): p. 375-382].
(§2) The kinetic constants were determined using the Specord 200 from (Analytik Jena, Germany) and the ABTS assay [Zhu, Z.W., et al. 2006, Making glucose oxidase fit for biofuel cell applications by directed protein evolution. Biosensors & Bioelectronics, 21(11): 2046-2051]. The measurements were performed in 1 ml of reaction volume and 1 cm light pathway cuvettes, using 2.5, 5, 10, 25, 50 and 100 mM glucose. The data were fitted using Origin 6 (OriginLab Corporation, Northampton).

[2] = substrate: OC[C@H]1OC(O)[C@H](O)[C@@H](O)[C@@H]1O; test: Kinetic constants by ABTS assay, parent GOx B11; settings: other: Parent GOx (B11), 2.5-100 mM glucose
From the text: as §1, §2

[3] = substrate: OC[C@H]1OC(O)[C@H](O)[C@@H](O)[C@@H]1O; test: Kinetic constants by ABTS assay, GOx mutant M12; settings: other: M12, 2.5-100 mM glucose
From the text: as §1, §2

B1: Aspergillus niger glucose oxidase (GOx), wild type, SEQ ID NO: 3 (Aspergillus niger) (protein)
chain: SNGIEASLLTDPKDVSGRTVDYIIAGGGLTGLTTAARLTENPNISVLVIESGSYESDRGPIIEDLNAYGDIFGSSVDHAYETVELATNNQTALIRSGNGLGGSTLVNGGTWTRPHKAQVDSWETVFGNEGWNWDNVAAYSLQAERARAPNAKQIAAGHYFNASCHGVNGTVHAGPRDTGDDYSPIVKALMSAVEDRGVPTKKDFGCGDPHGVSMFPNTLHEDQVRSDAAREWLLPNYQRPNLQVLTGQYVGKVLLSQNGTTPRAVGVEFGTHKGNTHNVYAKHEVLLAAGSAVSPTILEYSGIGMKSILEPLGIDTVVDLPVGLNLQDQTTATVRSRITSAGAGQGQAAWFATFNETFGDYSEKAHELLNTKLEQWAEEAVARGGFHNTTALLIQYENYRDWIVNHNVAYSELFLDTAGVASFDVWDLLPFTRGYVHILDKDPYLHHFAYDPQYFLNELDLLGQAAATQLARNISNSGAMQTYFAGETIPGDNLAYDADLSAWTEYIPYHFRPNYHGVGTCSMMPKEMGGVVDNAARVYGVQGLRVIDGSIPPTQMSSHVMTVFYAMALKISDAILEDYASMQ
notes: made in house; host or cells: Saccharomyces cerevisiae (pYES2 vector)
Question: B1 was tested. Which Km [1] did it give?
Answer: Its Km is 22.0 mM mM.

B2: Aspergillus niger glucose oxidase (GOx) parent mutant B11, T30V, I94V, SEQ ID NO: 5 (Aspergillus niger; I116V/T52V) (protein)
chain: SNGIEASLLTDPKDVSGRTVDYIIAGGGLVGLTTAARLTENPNISVLVIESGSYESDRGPIIEDLNAYGDIFGSSVDHAYETVELATNNQTALVRSGNGLGGSTLVNGGTWTRPHKAQVDSWETVFGNEGWNWDNVAAYSLQAERARAPNAKQIAAGHYFNASCHGVNGTVHAGPRDTGDDYSPIVKALMSAVEDRGVPTKKDFGCGDPHGVSMFPNTLHEDQVRSDAAREWLLPNYQRPNLQVLTGQYVGKVLLSQNGTTPRAVGVEFGTHKGNTHNVYAKHEVLLAAGSAVSPTILEYSGIGMKSILEPLGIDTVVDLPVGLNLQDQTTATVRSRITSAGAGQGQAAWFATFNETFGDYSEKAHELLNTKLEQWAEEAVARGGFHNTTALLIQYENYRDWIVNHNVAYSELFLDTAGVASFDVWDLLPFTRGYVHILDKDPYLHHFAYDPQYFLNELDLLGQAAATQLARNISNSGAMQTYFAGETIPGDNLAYDADLSAWTEYIPYHFRPNYHGVGTCSMMPKEMGGVVDNAARVYGVQGLRVIDGSIPPTQMSSHVMTVFYAMALKISDAILEDYASMQ
notes: made in house; host or cells: Saccharomyces cerevisiae (pYES2 plasmid B11 GOx)
Question: B2 was tested. Which Km [2] did it give?
Answer: The Km was 16.0 mM mM.

Question: What about the kcat [2] of the same protein?
Answer: Its kcat is 80.0 S-^1 S-^1.

B3: Aspergillus niger glucose oxidase (GOx) variant M12, N2Y, K13E, T30V, I94V, K152R, SEQ ID NO: 1 (Aspergillus niger; I116V/K174R/K35E/N24Y/T52V) (protein)
chain: SYGIEASLLTDPEDVSGRTVDYIIAGGGLVGLTTAARLTENPNISVLVIESGSYESDRGPIIEDLNAYGDIFGSSVDHAYETVELATNNQTALVRSGNGLGGSTLVNGGTWTRPHKAQVDSWETVFGNEGWNWDNVAAYSLQAERARAPNARQIAAGHYFNASCHGVNGTVHAGPRDTGDDYSPIVKALMSAVEDRGVPTKKDFGCGDPHGVSMFPNTLHEDQVRSDAAREWLLPNYQRPNLQVLTGQYVGKVLLSQNGTTPRAVGVEFGTHKGNTHNVYAKHEVLLAAGSAVSPTILEYSGIGMKSILEPLGIDTVVDLPVGLNLQDQTTATVRSRITSAGAGQGQAAWFATFNETFGDYSEKAHELLNTKLEQWAEEAVARGGFHNTTALLIQYENYRDWIVNHNVAYSELFLDTAGVASFDVWDLLPFTRGYVHILDKDPYLHHFAYDPQYFLNELDLLGQAAATQLARNISNSGAMQTYFAGETIPGDNLAYDADLSAWTEYIPYHFRPNYHGVGTCSMMPKEMGGVVDNAARVYGVQGLRVIDGSIPPTQMSSHVMTVFYAMALKISDAILEDYASMQ
notes: made in house; host or cells: Saccharomyces cerevisiae (pYES2)
Question: Which Km [3] does the source give for B3 here?
Answer: The Km was 18.1 mM mM.

Question: What about the kcat [3] of the same protein?
Answer: The kcat was 150 s-1 s-1.
